The target in the assay is T1, His-tagged human FANCD2 purified from E. coli (human, UniProt Q9BXW9 1-1451).
T1 construct: human FANCD2; non-ubiquitinylated single band on a gel; also called FANCD2-His; hFANCD2; source: E. coli BL21(DE3) CodonPlus, purified (Ni-NTA, Q Sepharose, Superdex 200)
Put plainly: pull-down; FLAG-DNA2 purified on M2 FLAG beads, incubated with purified FANCD2 (1 ug/ml) at 4 C for 1 h; washed with PBS 5 times; western blot; empty M2 beads as control. As to conditions: both partners purified. On the technique in general: In western blotting, separated proteins are transferred to a membrane and probed.

Data on 1 molecule can be found in paper PMC10516637, “FANCD2 and RAD51 recombinase directly inhibit DNA2 nuclease at stalled replication forks and FANCD2 acts as a novel RAD51 mediator in strand exchange to promote genome stability” (Nucleic Acids Research, 2023).

T1 sequence (Q9BXW9 whole entry): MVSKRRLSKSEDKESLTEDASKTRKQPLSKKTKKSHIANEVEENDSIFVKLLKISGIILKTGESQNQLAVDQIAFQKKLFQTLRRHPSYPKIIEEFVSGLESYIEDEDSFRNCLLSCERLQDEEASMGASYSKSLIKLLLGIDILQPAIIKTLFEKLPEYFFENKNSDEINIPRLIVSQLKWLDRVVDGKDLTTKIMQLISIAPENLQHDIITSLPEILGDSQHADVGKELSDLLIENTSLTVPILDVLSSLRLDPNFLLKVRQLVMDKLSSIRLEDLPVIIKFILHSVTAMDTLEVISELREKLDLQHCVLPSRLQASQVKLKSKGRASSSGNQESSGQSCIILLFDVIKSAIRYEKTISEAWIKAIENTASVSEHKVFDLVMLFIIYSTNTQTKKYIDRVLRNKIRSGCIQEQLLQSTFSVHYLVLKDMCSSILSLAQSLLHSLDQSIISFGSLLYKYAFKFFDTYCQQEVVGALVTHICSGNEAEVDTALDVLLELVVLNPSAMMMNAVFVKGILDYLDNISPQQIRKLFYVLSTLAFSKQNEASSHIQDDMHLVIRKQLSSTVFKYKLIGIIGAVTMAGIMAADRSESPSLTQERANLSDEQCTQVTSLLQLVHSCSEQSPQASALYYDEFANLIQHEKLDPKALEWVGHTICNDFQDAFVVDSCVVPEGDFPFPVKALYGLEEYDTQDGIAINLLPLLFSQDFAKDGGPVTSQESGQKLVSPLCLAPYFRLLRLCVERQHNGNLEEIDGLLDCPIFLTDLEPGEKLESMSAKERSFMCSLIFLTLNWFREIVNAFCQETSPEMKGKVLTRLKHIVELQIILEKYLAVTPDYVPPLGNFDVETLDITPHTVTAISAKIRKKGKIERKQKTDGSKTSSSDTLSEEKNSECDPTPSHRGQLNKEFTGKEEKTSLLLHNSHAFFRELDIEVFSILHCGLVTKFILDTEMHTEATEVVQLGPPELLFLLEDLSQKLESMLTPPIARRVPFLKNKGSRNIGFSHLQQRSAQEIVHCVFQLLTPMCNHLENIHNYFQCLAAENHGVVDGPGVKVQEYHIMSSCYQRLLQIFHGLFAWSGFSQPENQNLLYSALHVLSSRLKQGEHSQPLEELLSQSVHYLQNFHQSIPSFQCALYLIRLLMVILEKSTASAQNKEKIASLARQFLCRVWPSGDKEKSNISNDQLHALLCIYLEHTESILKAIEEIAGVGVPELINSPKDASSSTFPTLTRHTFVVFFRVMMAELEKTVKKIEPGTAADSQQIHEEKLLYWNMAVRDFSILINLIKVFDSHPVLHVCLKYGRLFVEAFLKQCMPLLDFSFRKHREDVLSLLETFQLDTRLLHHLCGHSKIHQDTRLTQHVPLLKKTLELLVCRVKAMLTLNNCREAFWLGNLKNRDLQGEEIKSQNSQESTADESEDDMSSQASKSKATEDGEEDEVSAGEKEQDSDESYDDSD

B1: FLAG-tagged human DNA2 from 293T cells (enzyme, UniProt P51530 1-1060, looked up)
chain: MEQLNELELLMEKSFWEEAELPAELFQKKVVASFPRTVLSTGMDNRYLVLAVNTVQNKEGNCEKRLVITASQSLENKELCILRNDWCSVPVEPGDIIHLEGDCTSDTWIIDKDFGYLILYPDMLISGTSIASSIRCMRRAVLSETFRSSDPATRQMLIGTVLHEVFQKAINNSFAPEKLQELAFQTIQEIRHLKEMYRLNLSQDEIKQEVEDYLPSFCKWAGDFMHKNTSTDFPQMQLSLPSDNSKDNSTCNIEVVKPMDIEESIWSPRFGLKGKIDVTVGVKIHRGYKTKYKIMPLELKTGKESNSIEHRSQVVLYTLLSQERRADPEAGLLLYLKTGQMYPVPANHLDKRELLKLRNQMAFSLFHRISKSATRQKTQLASLPQIIEEEKTCKYCSQIGNCALYSRAVEQQMDCSSVPIVMLPKIEEETQHLKQTHLEYFSLWCLMLTLESQSKDNKKNHQNIWLMPASEMEKSGSCIGNLIRMEHVKIVCDGQYLHNFQCKHGAIPVTNLMAGDRVIVSGEERSLFALSRGYVKEINMTTVTCLLDRNLSVLPESTLFRLDQEEKNCDIDTPLGNLSKLMENTFVSKKLRDLIIDFREPQFISYLSSVLPHDAKDTVACILKGLNKPQRQAMKKVLLSKDYTLIVGMPGTGKTTTICTLVRILYACGFSVLLTSYTHSAVDNILLKLAKFKIGFLRLGQIQKVHPAIQQFTEQEICRSKSIKSLALLEELYNSQLIVATTCMGINHPIFSRKIFDFCIVDEASQISQPICLGPLFFSRRFVLVGDHQQLPPLVLNREARALGMSESLFKRLEQNKSAVVQLTVQYRMNSKIMSLSNKLTYEGKLECGSDKVANAVINLRHFKDVKLELEFYADYSDNPWLMGVFEPNNPVCFLNTDKVPAPEQVEKGGVSNVTEAKLIVFLTSIFVKAGCSPSDIGIIAPYRQQLKIINDLLARSIGMVEVNTVDKYQGRDKSIVLVSFVRSNKDGTVGELLKDWRRLNVAITRAKHKLILLGCVPSLNCYPPLEKLLNHLNSEKLIIDLPSREHESLCHILGDFQRE
notes: human DNA2 helicase/nuclease; also called FLAG-DNA2; hDNA2; source: 293T, over-expressed, purified (M2 FLAG beads, 3x FLAG peptide elution); HEK-293T, over-expressed, in lysate
Consider B1, for which the binding result is on record as “binds”.
